In article PMC4628001, “Hybrid PET/optical imaging of integrin αVβ3 receptor expression using a ^64Cu-labeled streptavidin/biotin-based dimeric RGD peptide” (EJNMMI Research, 2015):

Molecular target: T1, integrin αVβ3 (Homo sapiens, UniProt P05106+P06756)
T1 construct: U87MG cells, which are known to express high levels of integrin αVβ3; endogenous in cells; host or cells: U87MG cells
Assay: Cell integrin receptor binding, U87MG cells, ^125I-RGDyK radioligand
Settings: displacement of ^125I-RGDyK, room temperature 1 h, pH 7.4 binding buffer, n = 3
Procedure: The integrin αVβ3 receptor binding study was performed using a previously reported procedure with a slight modification. ^125I-RGDyK was used as the radioligand and prepared immediately before use. […] All experiments were performed in triplicate. IC50 values were determined using GraphPad Prism software 5.

T1 sequence (P06756 31-889 limits assumed): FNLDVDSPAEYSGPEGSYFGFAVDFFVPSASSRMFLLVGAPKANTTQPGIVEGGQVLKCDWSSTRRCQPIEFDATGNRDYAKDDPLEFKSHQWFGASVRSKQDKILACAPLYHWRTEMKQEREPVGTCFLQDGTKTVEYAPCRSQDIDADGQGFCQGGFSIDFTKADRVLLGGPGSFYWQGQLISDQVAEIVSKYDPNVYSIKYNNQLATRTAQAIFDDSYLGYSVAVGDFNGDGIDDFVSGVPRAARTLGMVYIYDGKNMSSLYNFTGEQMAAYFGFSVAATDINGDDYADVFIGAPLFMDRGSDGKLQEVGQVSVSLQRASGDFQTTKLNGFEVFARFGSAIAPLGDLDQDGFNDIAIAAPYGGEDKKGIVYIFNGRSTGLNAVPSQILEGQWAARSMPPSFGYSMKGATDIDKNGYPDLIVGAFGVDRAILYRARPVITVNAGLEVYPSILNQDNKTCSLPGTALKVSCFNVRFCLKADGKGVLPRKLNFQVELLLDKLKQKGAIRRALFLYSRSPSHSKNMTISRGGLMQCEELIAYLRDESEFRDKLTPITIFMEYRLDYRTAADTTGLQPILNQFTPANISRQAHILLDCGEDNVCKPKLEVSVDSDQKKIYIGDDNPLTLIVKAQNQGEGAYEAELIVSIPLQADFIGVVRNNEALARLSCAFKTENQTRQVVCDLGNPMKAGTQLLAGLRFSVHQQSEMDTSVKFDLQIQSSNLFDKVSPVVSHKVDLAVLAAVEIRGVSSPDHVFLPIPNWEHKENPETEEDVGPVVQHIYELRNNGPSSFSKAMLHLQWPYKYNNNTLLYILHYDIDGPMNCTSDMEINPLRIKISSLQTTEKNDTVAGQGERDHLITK
T1 sequence (P06756 891-1048 partner limits assumed): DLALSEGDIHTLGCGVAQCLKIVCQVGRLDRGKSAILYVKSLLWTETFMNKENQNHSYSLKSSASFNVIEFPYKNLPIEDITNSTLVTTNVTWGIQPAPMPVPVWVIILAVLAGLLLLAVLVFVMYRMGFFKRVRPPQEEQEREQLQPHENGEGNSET
T1 sequence (P05106 27-788): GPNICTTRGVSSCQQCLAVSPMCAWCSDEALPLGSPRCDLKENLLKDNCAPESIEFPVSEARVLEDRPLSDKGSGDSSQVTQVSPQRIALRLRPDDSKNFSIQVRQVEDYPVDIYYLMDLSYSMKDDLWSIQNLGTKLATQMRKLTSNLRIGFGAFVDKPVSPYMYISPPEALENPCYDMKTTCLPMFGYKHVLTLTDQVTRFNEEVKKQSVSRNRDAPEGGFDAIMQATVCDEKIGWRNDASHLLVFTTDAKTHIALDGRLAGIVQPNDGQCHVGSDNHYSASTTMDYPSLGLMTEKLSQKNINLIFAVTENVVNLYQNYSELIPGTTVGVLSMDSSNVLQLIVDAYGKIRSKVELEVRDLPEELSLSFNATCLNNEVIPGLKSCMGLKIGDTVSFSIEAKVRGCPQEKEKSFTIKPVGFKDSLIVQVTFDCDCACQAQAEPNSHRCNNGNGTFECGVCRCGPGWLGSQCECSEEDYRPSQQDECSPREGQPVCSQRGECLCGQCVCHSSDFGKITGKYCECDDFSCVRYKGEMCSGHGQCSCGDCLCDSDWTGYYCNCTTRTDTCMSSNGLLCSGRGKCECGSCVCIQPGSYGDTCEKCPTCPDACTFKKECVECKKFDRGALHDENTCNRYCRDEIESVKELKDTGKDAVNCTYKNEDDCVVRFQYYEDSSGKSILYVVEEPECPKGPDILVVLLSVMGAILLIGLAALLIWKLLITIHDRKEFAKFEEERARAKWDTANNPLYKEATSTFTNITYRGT

## DOTA-(AF)SAv/biotin-PEG-RGD2: unlabeled complex comprising DOTA-(AF)SAv and biotin-PEG-RGD2
  IC50: 12.1 ± 4.2 nM
